Measurements reported in patent US20210132068A1.

Target: CD20 on CD20+ Daudi lymphoma cells (UniProt P11836)
Experiment: flow cytometry on CD20+ Daudi lymphoma cells, 30 minutes at 4° C.

Sequence of UniProt P11836 (P11836 whole entry): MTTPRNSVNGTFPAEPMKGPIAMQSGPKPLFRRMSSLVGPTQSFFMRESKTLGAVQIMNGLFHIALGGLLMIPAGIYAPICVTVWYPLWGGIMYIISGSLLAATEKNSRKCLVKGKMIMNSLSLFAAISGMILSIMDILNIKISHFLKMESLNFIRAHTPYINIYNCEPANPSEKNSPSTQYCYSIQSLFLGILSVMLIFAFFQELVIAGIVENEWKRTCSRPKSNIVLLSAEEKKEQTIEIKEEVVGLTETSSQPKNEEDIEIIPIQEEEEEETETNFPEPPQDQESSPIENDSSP

FITC-rituximab (antibody)
% positive cells: 95%
